For one molecule, Kd, EC50 and IC50 results are on record in publication PMC8315086 (Cell Discovery, 2021).

What all share (details): both partners purified
The target in test [1] is T1, recombinant SARS-CoV-2 S1 protein (Kactus Biosystems) (SARS-CoV-2, original wild type …, UniProt P0DTC2). Kind of test: SPR.
The target in test [2] is T1, recombinant SARS-CoV-2 S1 protein …. Put plainly: SPR. This is another data set of the same source.
For test [3], the target named is SARS-CoV-2 S1-His protein (SARS-CoV-2). Kind of test: ELISA.
The target of test [4] is SARS-CoV-2 S1-hFc protein (SARS-CoV-2). Kind of test: ELISA.

B1: 2B11 monoclonal antibody (full-length human IgG1) (antibody, V domains shown)
VH: EVQLVESGGGLVQPGGSLRLSCAASEITVSSNYMNWVRQAPGKGLEWVSVIYSGGTTYYADSVKGRFTISRDNSENTLYLQMNSLRAEDTAVYYCARDLMEVGGMDVWGQGTTVTVSS
VL: LPVLTQPPSASGTPGQRVTISCSGSSSNVENDNVNWFQQQVPGSTPKLVIYNDRLRPSGVPDRFSGSKSGTSAYLAISGLQSEDEADYYCVAWDASLQSYVFGTGTKVTVL
On to B1, for which the dissociation constant Kd in test [1] was found to be 4.67 nM; in test [2], 4.76 nM. In test [3], this molecule showed a concentration giving a half-maximal response (EC50) of 0.051 nM. Besides, the 50% inhibitory concentration (IC50) in test [4] worked out at 2.79 nM.
